{"source": "paper PMC9816786", "about": "(2022)", "binders": {"B1": {"name": "CHRD (aa 449–693) of human PCSK9, 6xHis-tagged (domain or fragment)", "chain": "HGAGWQLFCRTVWSAHSGPTRMATAVARCAPDEELLSCSSFSRSGKRRGERMEAQGGKLVCRAHNAFGGEGVYAIARCCLLPQANCSVHTAPPAEASMGTRVHCHQQGHVLTGCSSHWEVEDLGTHKPPVLRPRGQPNQCVGHREASIHASCCHAPGLECKVKEHGIPAPQEQVTVACEEGWTLTGCSALPGTSHVLGAYAVDNTCVVRSRDVSTTGSTSEGAVTAVAICCRSRHLAQASQELQ", "modifications": "biotinylated where it was immobilised for BLI (site not told)"}}, "assay_in_all_cases": "BLI", "key": {"P1.40 D62A": {"biological_target": "P1.40 D62A"}, "P1.40 F110A": {"biological_target": "P1.40 F110A"}, "P1.40 R111A": {"biological_target": "P1.40 R111A"}, "P1.40 T109A": {"biological_target": "P1.40 T109A"}, "P1.40 E44A": {"biological_target": "P1.40 E44A"}, "P1.40 E46A": {"biological_target": "P1.40 E46A"}, "P1.40 D89A": {"biological_target": "P1.40 D89A"}, "P1.40 R43A": {"biological_target": "P1.40 R43A"}}}
{"binder": "B1", "values": [{"measurement": "Kd", "setting": "P1.40 D62A", "result": 1.26, "unit": "nM"}, {"measurement": "koff", "setting": "P1.40 D62A", "result": 0.000668, "unit": "s⁻¹"}, {"measurement": "Kd", "setting": "P1.40 F110A", "result": "> 1000", "unit": "nM"}, {"measurement": "koff", "setting": "P1.40 F110A", "result": "> 0.001", "unit": "s⁻¹"}, {"measurement": "Kd", "setting": "P1.40 R111A", "result": 3.49, "unit": "nM"}, {"measurement": "koff", "setting": "P1.40 R111A", "result": 0.00147, "unit": "s⁻¹"}, {"measurement": "Kd", "setting": "P1.40 T109A", "result": "> 1000", "unit": "nM"}, {"measurement": "koff", "setting": "P1.40 T109A", "result": "> 0.001", "unit": "s⁻¹"}, {"measurement": "Kd", "setting": "P1.40 E44A", "result": 0.477, "unit": "nM"}, {"measurement": "koff", "setting": "P1.40 E44A", "result": 0.000359, "unit": "s⁻¹"}, {"measurement": "Kd", "setting": "P1.40 E46A", "result": 1.22, "unit": "nM"}, {"measurement": "koff", "setting": "P1.40 E46A", "result": 0.00064, "unit": "s⁻¹"}, {"measurement": "Kd", "setting": "P1.40 D89A", "result": 2.79, "unit": "nM"}, {"measurement": "koff", "setting": "P1.40 D89A", "result": 0.000882, "unit": "s⁻¹"}, {"measurement": "Kd", "setting": "P1.40 R43A", "result": 2.86, "unit": "nM"}, {"measurement": "koff", "setting": "P1.40 R43A", "result": 0.00141, "unit": "s⁻¹"}]}
